The record followed here is the supplement of paper PMC9112550, “Optimization of the antimicrobial peptide Bac7 by deep mutational scanning” (BMC Biology, 2022).

The data set has as its system Escherichia coli TOP10. Briefly: shrunken log2 fold change of peptide-encoding DNA abundance (4.5 h post-induction vs induction); higher = less antimicrobial activity (less host growth inhibition). The conditions noted are these: time post-induction: 4.5 h; library: site-saturation at positions 5, 18, 19, 20.
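Further: peptides expressed intracellularly from a pBAD plasmid library in pooled LB shake-flask culture, induced with 0.3% L-arabinose, DNA abundance read by NGS, three biological replicates, DESeq2 with apeglm shrinkage.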

As for RRIRDRPPRLPRPRPRPHYPPRP, the “shrunken log2 fold change” value is -0.265.

Regarding RRIRRRPPRLPRPRPRPCVNPRP, the “shrunken log2 fold change” value was -0.0549. Consider RRIRRRPPRLPRPRPRPPKTPRP, for which the “shrunken log2 fold change” value came out at 0.108. The same measure for RRIRWRPPRLPRPRPRPVPSPRP: 0.058; for RRIRSRPPRLPRPRPRPIQNPRP: -0.119. For the sequence RRIRIRPPRLPRPRPRPLDAPRP, the “shrunken log2 fold change” value was -0.142. The result for RRIRCRPPRLPRPRPRPYAIPRP reads -0.803; that for RRIRGRPPRLPRPRPRPVERPRP, 0.5; that for RRIRRRPPRLPRPRPRPGFMPRP, 0.252. On to RRIRVRPPRLPRPRPRPFDLPRP, for which the “shrunken log2 fold change” value is -0.24.

Take RRIRQRPPRLPRPRPRPFMQPRP: the “shrunken log2 fold change” value is -0.259.

For the sequence RRIRCRPPRLPRPRPRPDRVPRP, the “shrunken log2 fold change” value was -0.112. Take RRIRDRPPRLPRPRPRPGIVPRP: the “shrunken log2 fold change” value worked out at 0.0969.

For RRIRQRPPRLPRPRPRPNSWPRP, the “shrunken log2 fold change” value stood at 0.0283. For RRIRYRPPRLPRPRPRPPHLPRP, the “shrunken log2 fold change” value was -0.52. For the sequence RRIRARPPRLPRPRPRPDGTPRP, the “shrunken log2 fold change” value amounted to 0.288. For the sequence RRIRNRPPRLPRPRPRPKDTPRP, the “shrunken log2 fold change” value is -0.018.

As for RRIRPRPPRLPRPRPRPRHRPRP, the “shrunken log2 fold change” value was 0.177.

RRIRERPPRLPRPRPRPTYWPRP: the “shrunken log2 fold change” value was -0.219. In the case of RRIRMRPPRLPRPRPRPDIDPRP, the “shrunken log2 fold change” value was determined as 0.467.

Turning to RRIRGRPPRLPRPRPRPNEVPRP, the “shrunken log2 fold change” value amounted to 0.0747. The same measure for RRIRIRPPRLPRPRPRPAVQPRP: -0.107. RRIRYRPPRLPRPRPRPNLHPRP: the “shrunken log2 fold change” value is -0.821. For RRIRHRPPRLPRPRPRPQCCPRP, the “shrunken log2 fold change” value was -0.00176. For the sequence RRIRVRPPRLPRPRPRPGHHPRP, the “shrunken log2 fold change” value came out at 0.00137. Regarding RRIRCRPPRLPRPRPRPHGVPRP, the “shrunken log2 fold change” value stood at 0.015. Turning to RRIRIRPPRLPRPRPRPITRPRP, the “shrunken log2 fold change” value was found to be 0.0378. Consider RRIRNRPPRLPRPRPRPGMTPRP, for which the “shrunken log2 fold change” value is -0.257. The same measure for RRIRYRPPRLPRPRPRPLGWPRP: 0.0401; for RRIRLRPPRLPRPRPRPMDYPRP: -0.202; for RRIRVRPPRLPRPRPRPMTHPRP: -0.352. Regarding RRIRDRPPRLPRPRPRPDPGPRP, the “shrunken log2 fold change” value is 0.506. RRIRWRPPRLPRPRPRPRYVPRP: the “shrunken log2 fold change” value is -0.147. Take RRIRTRPPRLPRPRPRPPFQPRP: the “shrunken log2 fold change” value stood at 0.0322.

Consider RRIRNRPPRLPRPRPRPKFQPRP, for which the “shrunken log2 fold change” value is -0.505. RRIRRRPPRLPRPRPRPNWKPRP: the “shrunken log2 fold change” value was -0.0144. Turning to RRIRPRPPRLPRPRPRPWRVPRP, the “shrunken log2 fold change” value was determined as 0.244. RRIRSRPPRLPRPRPRPIWWPRP: the “shrunken log2 fold change” value stood at 0.361.

Regarding RRIRQRPPRLPRPRPRPDSSPRP, the “shrunken log2 fold change” value is 0.00797.

As to RRIRMRPPRLPRPRPRPHAKPRP, the “shrunken log2 fold change” value was found to be 0.256. The same measure for RRIRERPPRLPRPRPRPQRHPRP: 1.63. Take RRIRLRPPRLPRPRPRPIRRPRP: the “shrunken log2 fold change” value amounted to 0.0431. RRIRCRPPRLPRPRPRPQFIPRP: the “shrunken log2 fold change” value is -0.866. The result for RRIRFRPPRLPRPRPRPPGSPRP reads 0.238; that for RRIRARPPRLPRPRPRPVAHPRP, 0.159. RRIRWRPPRLPRPRPRPQVYPRP: the “shrunken log2 fold change” value is -0.015. For the sequence RRIRLRPPRLPRPRPRPTAHPRP, the “shrunken log2 fold change” value was determined as 0.0391. Take RRIRERPPRLPRPRPRPIVSPRP: the “shrunken log2 fold change” value is 0.0707. Consider RRIRGRPPRLPRPRPRPVNAPRP, for which the “shrunken log2 fold change” value was determined as 0.719. The result for RRIRVRPPRLPRPRPRPCRNPRP reads -0.0211.
